{"source": "paper doi:10.1101/2023.01.28.526057v3", "about": "(bioRxiv, 2023)", "origin": "cited, not measured here", "settings": "rat modeling parameter, Table S7, column PBS"}
{"substance": "liraglutide", "values": [{"measurement": "t1/2 in SC", "result": 57.02, "unit": "s"}]}
